Target: transforming growth factor beta 1 (UniProt P01137 279-390)
Test: SPR

Sequence of transforming growth factor beta 1 (P01137 279-390): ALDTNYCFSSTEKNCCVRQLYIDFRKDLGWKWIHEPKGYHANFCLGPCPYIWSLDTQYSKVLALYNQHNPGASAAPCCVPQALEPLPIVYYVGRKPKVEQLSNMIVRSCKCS

koff: 0.0589 s⁻¹
B1: Leucine-rich α2-glycoprotein (natural protein)
chain: LKECLILQSAEGSTVSCHGPTEFPSSLPADTVHLSVEFSNLTQLPAAALQGCPGLRELHLSSNRLQALSPELLAPVPRLRALDLTRNALRSLPPGLFSTSANLSTLVLRENQLREVSAQWLQGLDALGHLDLAENQLSSLPSGLLASLGALHTLDLGYNLLESLPEGLLRGPRRLQRLHLEGNRLQRLEDSLLAPQPFLRVLFLNDNQLVGVATGSFQGLQHLDMLDLSNNSLSSTPPGLWAFLGRPTRDMQDGFDISHNPWICDKNLADLCRWLVANRNKMFSQNDTRCAGPEAMKGQRLLDVAELGSL

Source: article PMC4484435 (2015)
